Experimental data: the supplement of paper PMC7877785
± gives the uncertainty stated by the source.

Assay: self-splicing fitness, log relative to wild type (ln ratio); higher = more splicing; Tetrahymena group I intron in knt gene, E. coli kanamycin selection, DiMSum; sequences stand for … in CUCUCU…GGAGGGAAAAGUUAUCAGGCAUGCACCUGGUAGCUAGUCUUUAAACCAAUAGAUUGCAUCGGUUUAAAAGGCAAGACCGUCAAAUUGCGGGAAAGGGGUCAACAGCCGUUCAGUACCAAGUCUCAGGGGAAACUUUGAGAUGGCCUUGCAAAGGGUAUGGUAAUAAGCUGACGGACAUGGUCCUAACCACGCAGCCAAGUCCUAAGUCAACAGAUCUUCUGUUGAUAUGGAUGCAGUUCACAGACUAAAUGUCGGUCGGGGAAGAUGUAUUCUUCUCAUAAGAUAUAGUCGGACCUCUCCUUAAUGGGAGCUAGCGGAUGAAGUGAUGCAACACUGGAGCCGCUGGGAACUAAUUUGUAUGCGAAAGUAUAUUGAUUAGUUUUGGAGUACUCGUGGUCG
Method in brief: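 Library with all eight P1ex-region intron nucleotides randomised, intron inside the knt kanamycin-resistance gene on pET-22b(+), in E. coli BL21(DE3). Cells grew overnight at 37°C or 30°C on LB agar with or without 25 μg/mL kanamycin (plus 100 μg/mL carbenicillin, 50 μM IPTG, 0.2% rhamnose), in six replicate transformations. Pooled colonies were amplicon-sequenced on Illumina HiSeq 2500. DiMSum fitness is the error-weighted combination of wild-type-normalised replicate fold changes, kanamycin versus none.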

Sequence | self-splicing fitness (ln) (30 °C) | self-splicing fitness (ln) (37 °C)
GCUCAGCAAUAUUACGACGU | 0.0949 ± 0.072 | 0.267 ± 0.079
GCUCAGCAAUAUUACGAGGU | -1.06 ± 0.12 | -2.08 ± 0.23
GCUCAGCAAUAUUACGCACU | 0.181 ± 0.11 | 0.213 ± 0.14
GCUCAGCAAUAUUACGCCAG | -3.54 ± 0.26 | -1.83 ± 0.3
GCUCAGCAAUAUUACGCCCG | – | -0.341 ± 0.44
GCUCAGCAAUAUUACGCGAG | -2.78 ± 0.13 | -2.18 ± 0.17
GCUCAGCAAUAUUACGCGUG | -1.99 ± 0.07 | -1.79 ± 0.089
GCUCAGCAAUAUUACGCUAA | -2.11 ± 0.11 | -0.785 ± 0.11
GCUCAGCAAUAUUACGCUCG | -1.1 ± 0.11 | -1.31 ± 0.18
GCUCAGCAAUAUUACGCUUC | -1.9 ± 0.077 | -0.102 ± 0.081
GCUCAGCAAUAUUACGGCCU | -1.6 ± 0.14 | -0.188 ± 0.16
GCUCAGCAAUAUUACGGGGC | -3.56 ± 0.2 | -1.98 ± 0.2
GCUCAGCAAUAUUACGGUAA | -1.52 ± 0.13 | -0.551 ± 0.11
GCUCAGCAAUAUUACGUGGU | -1.88 ± 0.13 | -1.31 ± 0.17
GCUCAGCAAUAUUACGUUAC | -1.56 ± 0.12 | -1.65 ± 0.14
GCUCAGCAAUAUUACGUUAU | -1.08 ± 0.12 | -0.166 ± 0.12
GCUCAGCAAUAUUACGUUCG | -1.13 ± 0.065 | -0.838 ± 0.074
GCUCAGCAAUAUUACGUUUG | -2.64 ± 0.13 | -1.8 ± 0.15
GCUGAGCAAUAUUACGAACC | -1.08 ± 0.14 | -0.236 ± 0.18
GCUGAGCAAUAUUACGAAUG | – | -1.4 ± 0.37

Sequence | self-splicing fitness (ln) (30 °C) | self-splicing fitness (ln) (37 °C)
GCUGAGCAAUAUUACGACAC | -1.67 ± 0.14 | -1.1 ± 0.18
GCUGAGCAAUAUUACGACGA | – | -0.876 ± 0.39
GCUGAGCAAUAUUACGCGGG | -2.93 ± 0.14 | -1.19 ± 0.14
GCUGAGCAAUAUUACGCUGU | – | -2.51 ± 0.49
GCUGAGCAAUAUUACGGAUU | -2.33 ± 0.1 | -1.26 ± 0.11
GCUGAGCAAUAUUACGGCAC | -0.439 ± 0.24 | -1.28 ± 0.39
GCUGAGCAAUAUUACGGCGG | -1.79 ± 0.22 | –
GCUGAGCAAUAUUACGGCUC | – | -1.71 ± 0.25
GCUGAGCAAUAUUACGGGAG | -2.58 ± 0.35 | -2.15 ± 0.3
GCUGAGCAAUAUUACGGUAC | -2.15 ± 0.22 | -2.77 ± 0.29
GCUGAGCAAUAUUACGGUUU | -1.86 ± 0.075 | -1.25 ± 0.095
GCUGAGCAAUAUUACGUCCA | -1.97 ± 0.27 | -2.32 ± 0.37
GCUGAGCAAUAUUACGUCUG | -2.08 ± 0.14 | -0.981 ± 0.14
GCUGAGCAAUAUUACGUGAU | -1.02 ± 0.1 | -1.13 ± 0.14
GCUGAGCAAUAUUACGUGGU | -3.63 ± 0.32 | -2.22 ± 0.4
GCUGAGCAAUAUUACGUUCG | -2.34 ± 0.12 | -1.17 ± 0.12
GCUGAGCAAUAUUACGUUUG | -2.85 ± 0.17 | -2.76 ± 0.25
GCUUAGCAAUAUUACGACCA | -1.45 ± 0.2 | -1.29 ± 0.38
GCUUAGCAAUAUUACGACGU | -0.576 ± 0.13 | 0.408 ± 0.16
GCUUAGCAAUAUUACGACUA | -1.34 ± 0.22 | -0.593 ± 0.2
